The values that follow are results of earlier work, collected in patent US9919022B2, “Use of angiotensin II (AII) receptor agonists to prevent or reduce hemodialysis-associated skeletal muscle cramps” (priority 2015, dated 2018).

Read-outs that look alike come from different tables or passages of the source.

For `CC[C@H](C)[C@H](NC(=O)[C@H](Cc1ccc(O)cc1)NC(=O)[C@@H](N)C(C)C)C(=O)N[C@@H](Cc1cnc[nH]1)C(=O)N1CCC[C@H]1C(=O)N[C@@H](Cc1ccccc1)C(=O)O` [angiotensin IV, Val-Tyr-Ile-His-Pro-Phe], the serum half-lives result (serum) is listed as “less than one”.
On to “H-Asp-Arg-Val-Tyr-Ile-His-Pro-Phe-OH (H-DRVYIHPF-OH; listed as Homo sapiens) [angiotensin II]”, for which, under “serum”, the terminal serum half-life entry was “less than 30 minutes”.
As to “Arg-Val-Tyr-Ile-His-Pro-Phe [Angiotensin III]”, where the note is “in vivo”, the serum half-lives result was “less than one”.
